From US8153759B2, “Depsipeptide containing lactic acid residue” (National University Corporation Gunma University, priority 2006, dated 2012) come the findings set out here.

A short description of this data set: Observation of temperature responsiveness by apparent absorbance (turbidity at 350 nm) of aqueous polymer solutions. The class given is physicochemical. The conditions noted are these: for temperature responsiveness (gelation/aggregation by heating, liquefaction by cooling): reversibility / aggregation temperature: aqueous solution 10 mg/mL; for temperature responsiveness (gelation/aggregation by heating, liquefaction by cooling): reversibility: temperature-increase and -decrease rate 1° C./5 minutes between 20° C. and 70° C., 350 nm; for aggregation temperature: rate 1° C./5 minutes, 350 nm (FIG. 9). The procedure: (§1) FIG. 5 illustrates a graph obtained by the following procedure: an aqueous solution of poly(Gly-Ile-Gly-Lac-Pro) (SEQ ID NO: 7) (10 mg/mL) which is one embodiment of the present invention was put in a 1-mm-thick quartz cell for absorption spectra; the temperature was increased at a rate of 1° C./5 minutes between 20° C. and 70° C. and then decreased; transmittance (%) was measured with respect to a light of 350 nm at each temperature in a 1° C. interval; and a turbidity (%) obtained by subtracting the transmittance (%) from 100 was plotted.
FIG. 6 illustrates a graph obtained by the following procedure: an aqueous solution of poly(Ala-Ile-Gly-Lac-Pro) (SEQ ID NO: 8) (10 mg/mL) which is one embodiment of the present invention was put in a 1-mm-thick quartz cell for absorption spectra; the temperature was increased at a rate of 1° C./5 minutes between 20° C. and 70° C. and then decreased; transmittance (%) was measured with respect to a light of 350 nm at each temperature in a 1° C. interval; and a turbidity (%) obtained by subtracting the transmittance (%) from 100 was plotted.
as §1, with “FIG. 9” for “FIG. 5”, “of poly(Gly-Val-Gly-Lac-Pro)” for “of poly(Gly-Ile-Gly-Lac-Pro)”, “NO: 9)” for “NO: 7)”, “plotted. In addition, as a comparative example, a plot of an aqueous solution (10 mg/mL) of poly(Gly-Val-Gly-Hmb-Pro) was shown.” for “plotted.”
FIG. 10 illustrates a graph obtained by the following procedure: an aqueous solution of poly(Gly-Val-Gly-Lac-Pro) (SEQ ID NO: 9) which is one embodiment of the present invention with different concentrations (10, 20, 30, and 40 mg/mL) was put in a 1-mm-thick quartz cell for absorption spectra; the temperature was increased at a rate of 1° C./5 minutes between 20° C. and 70° C. and then decreased; transmittance (%) was measured with respect to a light of 350 nm at each temperature in a 1° C. interval; and a turbidity (%) obtained by subtracting the transmittance (%) from 100 was plotted.
FIG. 11 illustrates a graph obtained by the following procedure: an aqueous solution of poly(Gly-Val-Gly-Lac-Pro) (SEQ ID NO: 9) (40 mg/mL) which is one embodiment of the present invention was put in a 1-mm-thick quartz cell for absorption spectra; the temperature was increased at a rate of 1° C./5 minutes between 20° C. and 70° C. and then decreased; transmittance (%) was measured with respect to a light of 350 nm at each temperature in a 1° C. interval; and a turbidity (%) obtained by subtracting the transmittance (%) from 100 was plotted.
The change in temperature responsiveness of each polymer obtained in Examples 2 and 4 due to heating an aqueous solution of the polymer was observed by apparent absorbance. The wavelength for observation was 350 nm. The wavelength corresponds to phenomenon of light scattering, i.e. white turbidity, by visual observation. Here, spectrum of poly(Gly-Ile-Gly-Lac-Pro (SEQ ID NO: 7)) and poly(Ala-Ile-Gly-Lac-Pro) (SEQ ID NO: 8) are shown in FIG. 5 and FIG. 6, respectively. The ordinate axes each represent turbidity converted from the transmittance. From the figure, the temperature responsiveness rate can be compared. […] In addition, in comparison between the observation by visual observation and the measured turbidity, the polymer underwent aggregation adequately even when the turbidity exceeds about 10 to 20%. […] The solution was actually returned to a uniform solution finally by left standing at 4° C. for 1 to 2 days. The extremely slow responsiveness (return to a uniform solution) at a low temperature is a novel property that has not happened before. […]

Non-standard residues stand in square brackets, D forms with d. No end group written: not given here. Hmb = valic acid residue (β-branched hydroxycarboxylic acid); Lac = C[C@H](O)C(=O)O

“poly(Ala-Ile-Gly-Lac-Pro) (AIG[Lac]P; numbers in words are those of the source; also: polymerized repeat, ~10 units) [depsipeptide polymer, polymerization degree about 10 (molecular weight about 4,500)]”: the “temperature responsiveness (gelation/aggregation by heating, liquefaction by cooling): reversibility” value was “irreversible temperature responsiveness for several hours even when cooled”. For the same substance, under “aggregation state at high temperature transferred to low temperature, left standing at 4° C.”, the “time left standing until aggregated solution returned to a uniform solution” value lay within 1 to 2 days.

For the substance “poly(Gly-Ile-Gly-Lac-Pro) (GIG[Lac]P; numbers in words are those of the source; also: polymerized repeat, ~3 units) [depsipeptide polymer, polymerization degree about 3 (molecular weight about 1,200)]”, the “temperature responsiveness (gelation/aggregation by heating, liquefaction by cooling): reversibility” value is on record as “reversible temperature responsiveness”.

With “poly(Gly-Val-Gly-Hmb-Pro) (GVG[Hmb]P; also: polymerized repeat unit) [comparative depsipeptide polymer, Hmb=2-hydroxy-3-methylbutanoic acid (valic acid residue), reference compound]”, the aggregation temperature is 20-30 °C.

In the case of “poly(Gly-Val-Gly-Lac-Pro) (GVG[Lac]P; also: polymerized repeat unit)”, the aggregation temperature is at least 70 °C. In addition, the “reversibility of phase transition phenomenon” value (aqueous solution 40 mg/mL, 1° C./5 minutes, 20-70° C. (FIG. 11)) is recorded as “reversible”. For the same substance, the “aggregation temperature at increased concentration” value (aqueous solution, concentration increased in the range 10 to 40 mg/mL (FIG. 10)) was at most 70 °C. Further, the “concentration dependence of aggregation temperature” value (range of 10 to 40 mg/mL (FIG. 10)) is listed as “decrease with the increase in the concentration”.
